Experimental findings from the DeepSol protein solubility set are described below.

The nature of this data set: soluble on expression in E. coli; label from the status in PepcDB or PDB records.
On to “MSLDPFSIVQDFRSIAGEEALEIAESGEENDNEQFQNWELEAKFWDLVGLLVEYRTSETVDKDINVHSYNSNVVFQKQLLQSNKGIYEIWLIKSWLEANIGIPERPSSLCTTKWSSSMIAGTVKSMDSDSILRDPTTNLQPDDRQNDHAFFVYAFRLLLAGQFEKLTEECEFTDNLTLNLILRGMESYVDPNVDTDMTDEYASQQGIKKHALWRRSVYALSQDPLLDPYEAAIYTYLSGDSPTNLRIDGLDWETELLIYVNQIWNVTMENYLIEHGRVDNDELITDMDTACPSLSQVLNILAAKYPDESEHPIRVLTASVLLNTIEPVMKSSTDMLLDVIKGRDEDNALFNESYLLRILTNLTIFLDIVSPDTIDISNKSKLLTSYISLLSYYGLYDVIPVFVSFLSQEEIVETYSFFLTNLIDPNLRQKQMEISKYLGLPIANILRRTAQRIFEETDQYYIVDSDIELTNEVSEVDQRLMNGVEWLIENGLYTDSIDTIIALSRRFLINGKVKALELFVDNHDVPNLLKEYQLERLSSQEEDHDLKTTELLQYTSLLSTFKKQEEWVKSSQLFNTESNLRSLIKQFKGFSNTIIKLVTTFLVDLIDNEEVNDSDVLYEIRALYTPFLIMELHNNLISASENLKVSTFVQEAIDLSILVANETDKIYLLFQSNGKLTTYLQMVAKASALFGREGHHHHHH”, for which the “soluble on expression in E. coli” value is listed as “not soluble”. Then “MGSDKIHHHHHHMNTFPAVLIGGPPHSGKSVLTYLLTQYLRQRGIEHYVLRACPDGEGDWSQESTPDLVRLLRQKGAFDRTFVDRVCRDIEQRHLPLLVDVGGRPTLDQERIIQRCTHAIVLSATPQGMDEWRNRVEQYGLIIVAELHSELHGSDQIEVEKPVLRGVISGLERNAPTGGIVVEALANRLARLMHYDQAELVQQHLQRAPAELVVDLDRLARQMWVEATQRRWIPPDLPQILDSIPAKTPLAIYGRGPNWLYAALAGHTAPAPFSLFDPRLGWAQAQSLRRVPQPVADVIRWQTREEQDYTLLKAHLLEPYLDYDDLSALTVPRLDPQRGVVVSGKLPFWLLTSLIVTYHEHPWLAVIQPQLNPNSVIIFSRCEDYRPGNSIQVVLD”, with “not soluble”; and “MEKTVNPFRIGIAPISWVNDDIPGLGDHYTQDQVLSEMAELGYVATEMGRLFSQDPPSLRAKLNQYGIELASKFIGVLFSDRSRLEEELETFQSWAEYLHDMGCKYAIVCEMGGSMHWDPRRAPEEKTIQRLTDSEWESLVDGLHRAAHICQELGMKLVYHFHAGTVVETAEEIDRLMELTDPNLVHLLYDTGHALYGGYDPVELLHRYADRIQYVHLKDIRRDVLEQVRREQLDFRTAVLRGMFTVPGDGCIDFVPIFSKLIEMGYNGWIIVEAEQDPAVAHPYTYAKMAKEYIDRLVHHLLAAQKR”, with “not soluble”; and “MYRLERTQRLPISIDEAWDFFASPDNLKKITPAYMGFDIKSGGGIPMYAGMIIKYTVRPLLGIPMTWVTEITHVEPQRFFVDEQRVGPYAIWHHQHHFKAIENGVEMTDILHYKLPFGILGNLAHPFLVKNKLEEIFNFRNKKMVELFGTYKLEHHHHHH”, with “soluble”.

On to “MSLLKCSICINDERITRILIVDGRPICKECKVFLEHPPDKEKIKKELEEILSKVDKAIVAYSGGKDSIVALYLAKEKYSIDVEAVMVDHGFIAPQAIKNAKNVAKYLDVPLTIIKRDYSDIFREALLKAKSPCRKCSRRTMEILRKYALKKGYRYMITGHELPFGHHPYRLMSGGIIQVRILSLMSEEERMKILKKLPVELPELPGYTSNCLILGPALQRFWERHGYSFEHRRIAALVRYGLLNKEKALKKVQKPEVPQWQWELVKKKLKLEDGFEGHHHHHH”, for which the “soluble on expression in E. coli” value is recorded as “soluble”.

As to “MKKSLIAFILIFMLVLSGCGMKDNDKQGSNDNGSSKSPYHRIVSLMPSNTEILYELGLGKYIVGVSTVDDYPKDVKKGKKQFDALNLNKEELLKAKPDLILAHESQKATANKVLSSLEKQGIKVVYVKDAQSIDETYNTFKQIGKLTHHDKQAEQLVEETKDNIDKVIDSIPAHHKKSKVFIEVSSKPEIYTAGKHTFFNDMLEKLEAQNVYSDINGWNPVTKESIIKKNPDILISTEAKTRSDYMDIIKKRGGFNKINAVKNTRIEVVNGDEVSRPGPRIDEGLKELRDAIYRK”, the “soluble on expression in E. coli” value was “not soluble”. With “MQCHVKDEVLYIGKKEFEEPIKSEWVLEMQNTEKYKTIGPTFPDGTINWQCPCMAGGSLVAHRCGNFFRELYICMKSDDTRDPSEKCPNQFVNWAACMQNMSDERREQMRKAMTVDTEELKINPK” the entry was “not soluble”. As for “MKIEEEFISASVNPRSHCLTACKTAPLVAYASSLQIAVQTIPKDDSEVGVIKSTSERRHQKPITVLKRLKSSEIVADEFVTGGVDSRVVLWKLRGEHVEYVADLTGCDGSVGSVCGCVEDGRKVVAAAWVSETSNGFHAWWTSSIGDLLNSTEIKLDHKAFALCLDAISIQNSVLLAVGTSKRFVELYGESADKKSFSRLISVAGHTDWIHSIAFNDNPDHLLVASAGQDTYVRLWAIEPETDEKSENIREDSSTTPPDELTSSANLFSINYTPYRCSSHAVMQGHDDWVHSTVWSNDGRVLLTASSDKTCIIWKEIDNLWRDDVRLGIVGGGQAAGFFAAVFSSSLDLKDSGEKNAENVVISSSYFGGLHCWKSTDEQKTFWTALPMTGGHVGEVRDVDWHRSDDGDSGFLMSVGQDQTTRVFAKNGRQQSYVEIARPQVHGHDMQCLSFVNPSIFVSGAEEKVFRAFRAPKSFVKSLEAISGVPTEKSFGDSDLAEFGACVPALGLSNKPMVEGETVDGEHWEEDAFRAAPVVLTSPPTEDTLQQNTLWPEQHKLYGHGYEVYAVTANPTGNVLATACKSSHVEHSVVMLWSTSNWSKKSEIIGHQLTVTQIAWNPSGTRLLTVSRDRTAKLYTEKNGEVDGFDYDCVWTSGKQHTRIIWACDWIDDEHFVTASRDQKVIVWAESAGQTAPKATVKLDEPVTAIAAVSKDVIVAGLQTGELIVLRFDSEGLHVIEKIGANRIPIDSAVLRLRFSKNGRKLAVATTDAKLRIFNVSQ”, the “soluble on expression in E. coli” value was “not soluble”.

“MLNVGATAPDFTLRDQNQQLVTLRGYRGAKNVLLVFFPLAFTGICQGELDQLRDHLPEFENDDSAALAISVGPPPTHKIWATQSGFTFPLLSDFWPHGAVSQAYGVFNEQAGIANRGTFVVDRSGIIRFAEMKQPGEVRDQRLWTDALAALTA”: the “soluble on expression in E. coli” value is on record as “soluble”. Then “MGSDKIHHHHHHMGLALCGAAAQAQEKPNFLIIQCDHLTQRVVGAYGQTQGCTLPIDEVASRGVIFSNAYVGCPLSQPSRAALWSGMMPHQTNVRSNSSEPVNTRLPENVPTLGSLFSESGYEAVHFGKTHDMGSLRGFKHKEPVAKPFTDPEFPVNNDSFLDVGTCEDAVAYLSNPPKEPFICIADFQNPHNICGFIGENAGVHTDRPISGPLPELPDNFDVEDWSNIPTPVQYICCSHRRMTQAAHWNEENYRHYIAAFQHYTKMVSKQVDSVLKALYSTPAGRNTIVVIMADHGDGMASHRMVTKHISFYDEMTNVPFIFAGPGIKQQKKPVDHLLTQPTLDLLPTLCDLAGIAVPAEKAGISLAPTLRGEKQKKSHPYVVSEWHSEYEYVTTPGRMVRGPRYKYTHYLEGNGEELYDMKKDPGERKNLAKDPKYSKILAEHRALLDDYITRSKDDYRSLKVDADPRCRNHTPGYPSHEGPGAREILKRK”, with “not soluble”; and “MPPYTVVYFPVRGRCAALRMLLADQGQSWKEEVVTVETWQEGSLKASCLYGQLPAFQDGDLTLYQSNTILRHLGRTLGLYGKDQQEAALVDMVNDGVEDLRCKYISLIYTNYEAGKDDYVKALPGQLKPFETLLSQNQGGKTFIVGDQISFADYNLLDLLLIHEVLAPGCLDAFPLLSAYVGRLSARPKLKAFLASPEYVNLPINGNGKQ”, with “soluble”; and “MSLTYLIKVLELFSGVGSFSISLNTLGIEHEIVGFSETRKTATQLFCKLHNKKESENLGDVRNVSAKDLDVDLLVFGSPCQSFTRAGKQGGGLKGSDTRSALMWEAVRIMEECKPKWIVWENVPDAISRKNMPNFQNYMDELDSLNYNTYYKVLNAHELGSAQKRKRLFSISIRKDIDNGKFEFLDLTREPKHLETYLENNDQPDIANEHIHSHLILGKDENGYKIKNGTKKGYLYANNGDGIDLAYVTSKARRGRVQVKACQTIMRGKTLGTINDGVLRFYSPREYWRLQEMPDELYKHVEACNFKPSTAYDVVGGVINQLHLKTVFLSLKKAFNEGHHHHHH”, with “not soluble”.

As to “MQDEVVLLDFWPSPFGMRVRIALAEKGIKYEYKEEDLRNKSPLLLQMNPVHKKIPVLIHNGKPICESLIAVQYIEEVWNDRNPLLPSDPYQRAQTRFWADYVDKKIYDLGRKIWTSKGEEKEAAKKEFIEALKLLEEQLGDKTYFGGDNLGFVDIALVPFYTWFKAYETFGTLNIESECPKFIAWAKRCLQKESVAKSLPDQQKVYEFIMDLRKKLGIE”, the “soluble on expression in E. coli” value is reported as “soluble”. Take “MLIEERLAKIQKIVNEQKSISMEALAEQVSVSKDTIRRDLIRLEKEGHLKRTHGGAISVQSEATIYDYAQRIVKHPEKKQAIAQKVWANIPKQASIFFDSSTTVEAAIRAMENSPIHAITNSLSHALLLAQMDQTKITVLPGQLHKQQLFLFGAETVAKVGEFAPDYTLLGVFALSEQGLFIHTEEEGQVKRRMIQQGKQVIALADQTKLNKTGLFKICELTEIDCLVTDTRPDEKFCEQLAQAGVTLIVADELEHHHHHH”: the “soluble on expression in E. coli” value is “soluble”. With “MSLQQQPPGTPKSTHGAWSVICDKPAGASEEQCALMQNVIADDRPEVGLSVVILKTADRKSRILRILAPLGVLLKDGMELYIDNNNIGRAYFTRCFSEGCYVEVDIDDELLKVLRAGKNAVFALRESVDQDRVGIPIELSGFAEGYDALPEGHHHHHH” the entry was “not soluble”; with “MAHHHHHHMSEQNGAHSLQAELERMNAAIESYALQLDTINSAIESIDSENHSDDVSRQIFEYQTACERDPANISAEDALDTVTRLENTLKIVRRRNQLLAKENATQQKLLNDRSKFLLKETKNYENLVDRTGWHEQCSLNPEDEAQKASDIQEMSQLEVTVQRELRAAHTILKKKEALLRGLEEQLAKGTDLDAELNNAYNDIRVRKRECRELELRLEHLRKCSKKNDEALTVFENHGQSVSIEYMETDKDFLKDAVAQMKLVCRRQDNVIRAQLTRQQQLQTRLDTILRSLREMNLEKEYERNVSKSALVPSASREEPEDVSSILPKEETIPIHTYRLIFKNKELMNTNVVRKNMLVLEKEGVIQALEASLMKYANALNMTTRQLENMKINKGFEMTELMVELQQQHKNYLQQLEQIMQENNKLKKQLYRTPQLRTLIKNR”, “not soluble”. As to “MRKLTLPKDFLWGGAVAAHQVEGGWNKDGKGPSICDVLTGGAHGVPREITQNVVAGKYYPNHEAVDFYGHYKEDIRLFAEMGFKCFRTSIAWTRIFPNGDESQPNEAGLKFYDDMFDELLKYNIEPVITLSHFEMPLHLVQHYGGWTNRKVVDFFVRFAEVVFERYKHKVKYWMTFNEINNQRNWRAPLFGYCCSGVVYTEHENPEETMYQVLHHQFVASALAVKAARRINPQMKVGCMLAMVALYPFSCKPEDVMFAQESMRERYVFTDVQLRGYYPSYVLNEWERRGFNIKMEDGDLEVLREGTCDYLGFSYYMTNAVKAEGGSGDAISGFEGSVPNPYVKASDWGWQIDPVGLRYSLCELYERYQKPLFIVENGFGAYDKVEEDGSINDDYRIDYLRAHIEEMKKAVTYDGVDLMGYTPWGCIDCVSFTTGQYSKRYGFIYVNKHDDGTGDMSRSRKKSFNWYKEVIASNGEKL”, the “soluble on expression in E. coli” value is “not soluble”. With “NAMPPIIKRRVMRKIIIASQNPAKVNAVRSAFSTVFPDQEWEFIGVSVPSEVADQPMSDEETKQGALNRVRNAKQRHPGAEYYVGLEAGIEENKTFAWMIVESDQQRGESRSACLMLPPLVLERLRQAKELGDVMDEVFGTENIKQKGGAIGLLTRHHLTRSTVYHQALILALIPFINPEHYPSA” the entry was “soluble”.
